Results: patent US8889408B2, “Factor taking part in transcription control” (Sony Corporation, priority 2002, dated 2014)

Assays:
Skip = target: T1, Skip (Homo sapiens, UniProt Q13573); experiment: Immunoprecipitation analysis of HDART-Skip interaction in 293 cells; type: binding; parameters: expressed in transfected cells; host or cells: HEK293 cells
T1 sequence (Q13573 1-536): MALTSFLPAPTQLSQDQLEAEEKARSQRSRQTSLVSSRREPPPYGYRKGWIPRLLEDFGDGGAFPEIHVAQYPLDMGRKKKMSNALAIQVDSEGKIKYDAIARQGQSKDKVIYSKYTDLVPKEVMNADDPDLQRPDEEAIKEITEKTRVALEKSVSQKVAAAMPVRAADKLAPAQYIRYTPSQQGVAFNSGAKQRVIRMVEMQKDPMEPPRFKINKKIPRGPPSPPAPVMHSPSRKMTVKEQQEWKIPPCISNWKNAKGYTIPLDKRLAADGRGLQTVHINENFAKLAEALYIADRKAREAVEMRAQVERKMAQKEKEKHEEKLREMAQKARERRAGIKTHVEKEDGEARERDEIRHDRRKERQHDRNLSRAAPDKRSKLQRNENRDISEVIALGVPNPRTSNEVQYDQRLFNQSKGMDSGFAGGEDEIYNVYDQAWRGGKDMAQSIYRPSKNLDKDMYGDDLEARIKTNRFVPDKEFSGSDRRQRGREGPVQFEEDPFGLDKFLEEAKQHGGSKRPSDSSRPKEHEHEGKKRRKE
Protocol: The interaction between HDART and Skip inside the mammalian cells was confirmed according to the immunoprecipitation analysis. For the confirmation, the Flag-Skip expression vector expressing the Flag-Skip fused protein and the GFP-HDART expression protein expressing the GFP-HDART fused protein (FIG. 4A) were transfected into HEK293 cells by use of Effectene kit (QIAGEN™). It will be noted that a control experiment was conducted such that the Flag-Skip expression vector alone and the GFP-HDART expression vector were, respectively, transfected into cells of the same type under the same conditions.
24 hours after the transfection, the cells were lysed on ice for 30 minutes in a Nonidet P-40 buffer solution (50 mM Tris HCl (pH 7.6), 150 mM NaCl, 5 mM EDTA, 0.5% Nonidet P-40 and 1 mM PMSF) containing 100 μl of a protease inhibitory substance cocktail (Sigma #p8340) to prepare a cell extract (1 mg). This extract was incubated for 30 minutes at 4° C. along with 40 μl of protein A/G sepharose beads for preliminary clarification. Next, the thus clarified supernatant extract was further incubated for 1 hour along with an anti-Flag antibody or a negative control mouse IgG antibody (2 μg), followed by precipitation for 30 minutes by use of 40 μl of protein A/G sepharose beads. […]
Further, the interaction of endogenous HDART and externally introduced Skip was analyzed. […]

HDAC1 = target: T2, HDAC1 (Homo sapiens, UniProt Q13547); experiment: Immunoprecipitation of GFP-HDART with Flag-HDAC in 293 cells; type: binding; settings: co-transfected 293 cells; anti-FLAG immunoprecipitation
T2 construct: made in house
T2 sequence (Q13547 whole entry, species assumed): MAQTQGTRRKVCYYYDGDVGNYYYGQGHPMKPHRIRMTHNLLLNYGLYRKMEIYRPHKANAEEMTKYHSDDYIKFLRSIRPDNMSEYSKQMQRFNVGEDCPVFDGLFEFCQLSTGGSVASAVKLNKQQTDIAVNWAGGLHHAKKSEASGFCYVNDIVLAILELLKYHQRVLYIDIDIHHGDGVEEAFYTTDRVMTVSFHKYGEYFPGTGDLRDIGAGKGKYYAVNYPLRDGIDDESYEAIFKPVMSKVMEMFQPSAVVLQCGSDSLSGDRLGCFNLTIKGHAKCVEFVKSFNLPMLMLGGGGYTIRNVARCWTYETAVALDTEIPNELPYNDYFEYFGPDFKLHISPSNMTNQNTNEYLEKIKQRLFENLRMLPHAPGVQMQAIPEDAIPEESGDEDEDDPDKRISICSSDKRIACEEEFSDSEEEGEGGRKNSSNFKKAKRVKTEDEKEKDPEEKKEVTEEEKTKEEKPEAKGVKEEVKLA
Protocol: Flag-HDACs expression vectors capable of expressing different types of HDAC (1, 3, 4 or 6) and a GFP-HDART expression vector were, respectively, co-transfected with 293 cells in the same manner as in Example 2, and cell extracts were prepared 24 hours after the transfection. The respective cell extracts were incubated with an anti-Flag antibody, followed by immunoprecipitation. The resulting immunoprecipitate was isolated with SDS-PAGE and an isolated pattern was transferred to a membrane, followed by immunoblotting with use of an anti-Flag antibody or […]. For reference, in order to confirm the expression of GFP-HDART protein in the respective cells, individual samples prior to the immunoprecipitation were similarly developed with SDS-PAGE to conduct immunoblotting with use of an anti-GFP antibody. […] The kinds of HDAC's from the left side of the figure are as follows: lane 1, HDAC1; lane 3, HDAC3; lane 4, HDAC4; and lane 5, HDAC6. It will be noted that lane 2 is for the sample in which GFP-HDART alone was expressed.

[1] = tested on: glucocorticoid receptor (GR); experiment: GR reporter CAT analysis in GR positive Hela cells; type: cell-based; settings: co-expression of HDART; Hela cells; 10^−8 M dexamethasone
Protocol: Furthermore, the action of HDART on the transcription regulation by glucocorticoid receptor (GR) was analyzed by use of GR reporter plasmid in GR positive Hela cells. The transcription activity of a glucocorticoid response promoter was carried out in the same manner as in the experiment for the retinoic acid receptor except for the use of Hela cells and 10^−8 M of dexamethasone. The results of the measurement are shown in the same manner as shown above.
Next, the influence of the overexpression of N4TPR on the transcription from RAR or a glucocorticoid responsive promoter was checked. It will be noted that this test was made in the same manner as in the reporter analysis set out in Example 4, but using GFP-N4TPR expression vector (0, 0.3 and 0.5 μg).

HDAC3 = HDAC3 (Homo sapiens, UniProt O15379); experiment: GST pulldown analysis; type: binding; settings: GST-HDART fused protein versus GST protein
HDAC3, sequence (O15379 whole entry, species assumed, the tested form may be a part): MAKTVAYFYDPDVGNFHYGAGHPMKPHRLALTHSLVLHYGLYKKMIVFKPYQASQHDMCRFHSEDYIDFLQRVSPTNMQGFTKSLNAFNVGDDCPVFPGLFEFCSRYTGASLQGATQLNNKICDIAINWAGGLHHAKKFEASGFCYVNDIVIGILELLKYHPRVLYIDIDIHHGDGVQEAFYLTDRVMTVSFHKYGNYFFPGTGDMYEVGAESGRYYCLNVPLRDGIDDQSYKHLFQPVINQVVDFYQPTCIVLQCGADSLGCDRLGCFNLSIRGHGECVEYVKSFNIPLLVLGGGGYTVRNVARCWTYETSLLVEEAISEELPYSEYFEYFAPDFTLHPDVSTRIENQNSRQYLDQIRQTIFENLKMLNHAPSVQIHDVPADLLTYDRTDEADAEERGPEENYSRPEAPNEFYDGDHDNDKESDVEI
Description: Further, the direct interaction between HDART and HDAC3 was investigated by GST pulldown analysis. The GST pulldown analysis was essentially carried out according to a known procedure (Tzamarias, D., and Struhl, K. (1995) Genes Dev 9(7), 821-31.). Using TNT (Registered Trademark) in vitro transcription/translation system (Promega), the in vitro translation of HDAC3 was made in the presence of ^35S-methionine. GST protein or GST-HDART fused protein was, respectively, expressed within Escherichia coli, followed by purification in a GST binding buffer solution (50 mM tris-HCl, 200 mM LiCl, 0.5% NP40, 5 mM EDTA, 1 mM PMSF) by use of glutathione sepharose. A binding reaction solution containing GST-HDART fused protein or control GST protein (about 1 μg) and ^35S-radio-labeled in vitro translation product (10 μl) in 1 ml of the GST binding buffer solution was prepared. This reaction solution was incubated at 4° C. for one hour while shaking, after which the resulting the sepharose-GST protein complex was washed five times with the GST binding buffer solution. […] It was confirmed by Coomassie brilliant blue staining that the GST fused protein was equally electrophoresed, and ^35S-radio-labeled HDAC was detected according to autoradiography.

co-precipitation of endogenous HDART with Flag-Skip (Skip; 293 cells, anti-Flag antibody): co-precipitated
interaction of foreign HDART (GFP-HDART) with Flag-Skip (Skip; co-expression in 293 cells, immunoprecipitation with anti-Flag antibody): specifically interact
interaction with HDAC1 (HDAC1): exhibits interaction
pulldown of in vitro translated HDAC3 (HDAC3): pulled down
B1: HDART: HDAC associated repressor TPR protein, 855 amino acids, SEQ ID NO: 2; transcription repressing factor, used as fusions or expressed from vector (protein, listed as Homo sapiens)
chain: MVVMARLSRPERPDLVFEEEDLPYEEEIMRNQFSVKCWLRYIEFKQGAPKPRLNQLYERALKLLPCSYKLWYRYLKARRAQVKHRCVTDPAYEDVNNCHERAFVFMHKMPRLWLDYCQFLMDQGRVTHTRRTFDRALRALPITQHSRIWPLYLRFLRSHPLPETAVRGYRRFLKLSPESAEEYIEYLKSSDRLDEAAQRLATVVNDERFVSKAGKSNYQLWHELCDLISQNPDKVQSLNVDAIIRGGLTRFTDQLGKLWCSLADYYIRSGHFEKARDVYEEAIRTVMTVRDFTQVFDSYAQFEESMIAAKMETASELGREEEDDVDLELRLARFEQLISRRPLLLNSVLLRQNPHHVHEWHKRVALHQGRPREIINTYTEAVQTVDPFKATGKPHTLWVAFAKFYEDNGQLDDARVILEKATKVNFKQVDDLASVWCQCGELELRHENYDEALRLLRKATALPARRAEYFDGSEPVQNRVYKSLKVWSMLADLEESLGTFQSTKAVYDRILDLRIATPQIVINYAMFLEEHKYFEESFKAYERGISLFKWPNVSDIWSTYLTKFIARYGGRKLERARDLFEQALDGCPPKYAKTLYLLYAQLEEEWGLARHAMAVYERATRAVEPAQQYDMFNIYIKRAAEIYGVTHTRGIYQKAIEVLSDEHAREMCLRFADMECKLGEIDRARAIYSFCSQICDPRTTGAFWQTWKDFEVRHGNEDTIKEMLRIRRSVQATYNTQVNFMASQMLKVSGSATGTVSDLAPGQSGMDDMKLLEQRAEQLAAEAERDQPLRAQSKILFVRSDASREELAELAQQVNPEEIQLGEDEDEDEMDLEPNEVRLEQQSVPAAVFGSLKED
activation of the reporter gene responding to glucocorticoid [1]: inhibited
